B1: EXPGMP 80B10 (as a fusion with the Nanobody 2D3) (other)
chain: EVQLVESGGSLVQPGGSLRLSCAASGFTFDDYAMSWVRQVPGKGLEWVSSINWSGTHTDYADSVKGRFTISRNNANNTLYLQMNSLKSEDTAVYYCAKNWRDAGTTWFEKSGSAGQGTQVTVSSGGGGSGGGSYWWERRDWDFDVFGGGTPAAAEQKLISEEDLNGAAHHHHHH
notes: Nanobody-peptide fusion, expressed in E. coli, purified by IMAC/SEC; also called 2D3-9GS-EXP80B10
B2: 5F7-9GS-EXP89D03-9GS-EXP89D03 (other)
chain: EVQLVESGGGLVQAGGSLRLSCAASGITFSINTMGWYRQAPGKQRELVALISSIGDTYYADSVKGRFTISRDNAKNTVYLQMNSLKPEDTAVYYCKRFRTAAQGTDYWGQGTQVTVSSGGGGSGGGSWWEQDRDWDFDVFGGGTPGGGGSGGGSWWEQDRDWDFDVFGGGTP
notes: Fusion of Nanobody 5F7 with a tandem repeat of peptide 89D03; also called EXP486

Assays:
human serum albumin = molecular target: T1, human serum albumin (human, UniProt P02768 25-609); assay: SPR (BIAcore 3000), HSA on CM5 chip, 2D3-peptide fusion injected
T1 construct: Bought protein (Sigma, 99% pure); also called HSA
T1 sequence (P02768 25-609 limits assumed): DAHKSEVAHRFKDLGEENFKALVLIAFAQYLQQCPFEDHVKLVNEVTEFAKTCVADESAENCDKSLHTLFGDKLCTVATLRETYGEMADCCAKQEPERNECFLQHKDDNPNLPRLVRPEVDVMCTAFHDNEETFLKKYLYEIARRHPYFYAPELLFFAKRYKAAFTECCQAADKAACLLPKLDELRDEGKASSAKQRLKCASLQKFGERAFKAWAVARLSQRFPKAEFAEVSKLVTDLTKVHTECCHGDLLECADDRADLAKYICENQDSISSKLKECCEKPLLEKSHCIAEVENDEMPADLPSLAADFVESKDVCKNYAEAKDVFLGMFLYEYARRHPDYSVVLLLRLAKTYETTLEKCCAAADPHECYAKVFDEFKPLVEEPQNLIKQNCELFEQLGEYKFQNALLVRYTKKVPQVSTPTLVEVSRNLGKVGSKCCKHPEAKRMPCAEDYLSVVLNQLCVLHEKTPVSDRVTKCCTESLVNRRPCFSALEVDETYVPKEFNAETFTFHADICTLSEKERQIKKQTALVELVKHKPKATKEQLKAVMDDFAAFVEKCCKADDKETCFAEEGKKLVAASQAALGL

cynomolgus serum albumin = molecular target: T2, cynomolgus serum albumin (cynomolgus monkey, UniProt A2V9Z4 25-608); assay: SPR (BIAcore 3000), 200 nM and 1 uM fusion injected on CM5 chip with ~900 RU cynomolgus serum albumin
T2 construct: also called cyno serum albumin
T2 sequence (A2V9Z4 25-608 limits assumed): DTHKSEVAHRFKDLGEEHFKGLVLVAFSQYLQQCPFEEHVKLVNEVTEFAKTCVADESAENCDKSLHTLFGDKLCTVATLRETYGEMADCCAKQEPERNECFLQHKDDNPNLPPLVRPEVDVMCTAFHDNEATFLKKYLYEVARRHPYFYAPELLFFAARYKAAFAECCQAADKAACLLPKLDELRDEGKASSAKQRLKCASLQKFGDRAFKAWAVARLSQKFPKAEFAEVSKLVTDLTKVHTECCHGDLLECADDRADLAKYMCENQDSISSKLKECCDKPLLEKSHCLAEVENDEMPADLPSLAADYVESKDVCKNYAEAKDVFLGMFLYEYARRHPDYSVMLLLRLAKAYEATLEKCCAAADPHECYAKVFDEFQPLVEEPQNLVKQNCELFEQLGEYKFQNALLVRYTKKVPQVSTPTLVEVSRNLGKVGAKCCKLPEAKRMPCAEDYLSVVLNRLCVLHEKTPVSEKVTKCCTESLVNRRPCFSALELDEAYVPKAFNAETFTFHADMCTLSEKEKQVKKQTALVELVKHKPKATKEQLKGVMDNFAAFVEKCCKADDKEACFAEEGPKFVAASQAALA

Binder | Kd (human serum albumin) [nM] | binding result (cynomolgus serum albumin)
B1 | 16 | –
B2 | – | binds
